Source: PMC1559926

Legend:
[1] = biological target: Caveolin-1 61-101 (UniProt Q03135); assay: given as Ka
[2] = biological target: Caveolin-1 135-178 (UniProt Q03135); assay: given as Ka
Caveolin-1 135-178, sequence (Q03135 135-178): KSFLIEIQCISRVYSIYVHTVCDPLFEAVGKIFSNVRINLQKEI

PrP, P04925, sequence (P04925 23-230): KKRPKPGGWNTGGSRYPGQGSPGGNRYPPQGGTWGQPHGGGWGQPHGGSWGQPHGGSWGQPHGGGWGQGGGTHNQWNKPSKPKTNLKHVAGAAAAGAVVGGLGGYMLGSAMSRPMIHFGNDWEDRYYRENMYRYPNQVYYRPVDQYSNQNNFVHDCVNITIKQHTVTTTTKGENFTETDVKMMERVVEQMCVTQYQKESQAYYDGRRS
Caveolin-1 61-101, sequence (Q03135 61-101): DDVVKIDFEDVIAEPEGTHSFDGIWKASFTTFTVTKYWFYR

Substance: PrP, P04925
- Kd [1]: 1.18 nM
- Kd [2]: 1.18 nM
